Experimental data as given in patent publication US11278600B2, “Human alpha-galactosidase variants” (Codexis, Inc., priority 2014, dated 2022).
Changes are numbered by the printed parent chain.

B1: 157 (protein)
chain: LDNGLARTPTMGWLHWERFMCNLDCQEEPDSCISEKLFMEMAELMVSEGWKDAGYEYLCIDDCWMAPQRDSEGRLQADPQRFPHGIRQLANYVHSKGLKLGIYADVGNKTCAGFPGSFGYYDIDAQTFADWGVDLLKFDGCYCDSLENLADGYKHMSLALNRTGRSIVYSCEWPLYMWPFQKPNYTEIRQYCNHWRNFADIDDSWKSIKSILDWTSFNQERIVDVAGPGGWNDPDMLVIGNFGLSWNQQVTQMALWAIMAAPLFMSNDLRHISPQAKALLQDKDVIAINQDPLGKQGYQLRQGDNFEVWERPLSGLAWAVAMINRQEIGGPRSYTIAVASLGKGVACNPACFITQLLPVKRKLGFYEWTSVLRSHINPTGTVLLQLENTMQMSKDLLL
modifications: Synthetic Polypeptide sequence of Variant No. 157 of mature Human GLA
B2: 168 (protein)
chain: B1 chain with V371R, S374M
modifications: Synthetic Polypeptide sequence of Variant No. 168 of mature Human GLA
B3: 163 (protein)
chain: B1 chain with S31D, V371R
modifications: Synthetic Polypeptide sequence of Variant No. 163 of mature Human GLA
B4: 161 (protein)
chain: B1 chain with S166H, V371R
modifications: Synthetic Polypeptide sequence of Variant No. 161 of mature Human GLA
B5: 164 (protein)
chain: B1 chain with S34D, V371R, M392P
modifications: Synthetic Polypeptide sequence of Variant No. 164 of mature Human GLA
B6: 160 (protein)
chain: B1 chain with S166A, V371R
modifications: Synthetic Polypeptide sequence of Variant No. 160 of mature Human GLA
B7: 158 (protein)
chain: B1 chain with R87K, V371R
modifications: Synthetic Polypeptide sequence of Variant No. 158 of mature Human GLA
B8: 167 (protein)
chain: B1 chain with S34R, V371R
modifications: Synthetic Polypeptide sequence of Variant No. 16 of mature Human GLA
B9: 159 (protein)
chain: B1 chain with R87P, V371R, L398R
modifications: Synthetic Polypeptide sequence of Variant No. 159 of mature Human GLA
B10: 165 (protein)
chain: B1 chain with S34G, V371R
modifications: Synthetic Polypeptide sequence of Variant No. 165 of mature Human GLA
B11: 166 (protein)
chain: B1 chain with S34H, V371R, M390R
modifications: Synthetic Polypeptide sequence of Variant No. 166 of mature Human GLA
B12: 162 (protein)
chain: B1 chain with S166K, V371R
modifications: Synthetic Polypeptide sequence of Variant No. 162 of mature Human GLA
B13: 39 (protein)
chain: LDNGLARTPTMGWLHWERFMCNLDCQEEPDSCISEKLFMEMAELMVSEGWKDAGYEYLCIDDCWMAPQRDSEGRLQADPQRFPHGIRQLANYVHSKGLKLGIYADVGNKTCAGFPGSFGYYDINAQTFADWGVDLLKFDGCYCDSLGNLADGYKHMSLALKQVGASSIVXCEWPLYSWPFQKPNYTEIRQYCNHWRNFADIDDSWKSIKSILDWTSENQERIVDVAGPGGWNDPDMLVIGNFGLSWNQQVTQMALWAIMAAPLFMSNDLRHISPQAKALLQDKDVIAINQDPLGKQGYQLRQGDNFEVWERPLSGLAWAVAMINRQEIGGPRSYTIAVASLGKGVACNPACFITQLLPVKRKLGFYEWTSRLRSHINPTGTVLLQLENTMQMSKDLLL
modifications: Synthetic Polypeptide sequence of Variant No. 39 of mature Human GLA; VARIANT (170)..(170): Xaa = any amino acid or absent

Columns and labels:
Format in all cases: biochemical
[1] = HTP-analysis of yeast culture supernatants, no challenge (MUGal hydrolysis); conditions: activity of the variant/activity of WT GLA (SEQ ID NO: 5), yeast supernatant
Method in brief: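 GLA variants were expressed in INVSc1 yeast grown in SD-Ura broth with glucose at 30° C., and culture supernatants were collected after 66-84 h. Supernatant was mixed with McIlvaine buffer pH 4.8 and MUGal (2 mM stock) in 50 mM citrate, 200 mM KCl, pH 4.6, incubated at 37° C. for 30-180 minutes, then quenched with sodium carbonate.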

[2] = HTP-analysis of supernatants pretreated with acid (MUGal hydrolysis); conditions: challenge at pH 4.2; activity of the variant/activity of WT GLA (SEQ ID NO: 5); yeast supernatant
Method in brief: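 Fluorescence of MUGal hydrolysis (Ex. 355 nm, Em. 448 nm) is read after sodium carbonate quench. The enzyme source is INVSc1 yeast culture supernatant, first exposed to pH 3.3-4.3 McIlvaine buffer at 37° C. for 1-3 h, then reacted at pH 4.8 for 30-180 minutes.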

[3] = HTP-analysis of supernatants pretreated with base (MUGal hydrolysis); conditions: challenge at pH 7.1; activity of the variant/activity of WT GLA (SEQ ID NO: 5); yeast supernatant
Method in brief: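 GLA variants secreted from yeast INVSc1; culture supernatants pre-incubated with McIlvaine buffer pH 7.0–8.2 or 200 mM bicarbonate pH 9.1–9.7 at 37° C. for 1–18 h. Residual activity: MUGal (4 mM stock) hydrolysis at pH 4.3–4.8, 37° C., 30–180 min, carbonate quench; fluorescence Ex 355/Em 448 nm.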

| Molecule | Relative Activity of GLA Variants After No Challenge (NC) [1] | Relative Activity of GLA Variants After Challenge at pH 4.2 [2] | Relative Activity of GLA Variants After Challenge at pH 7.1 [3] |
| --- | --- | --- | --- |
| B1 | ++ (++ = >1.5 to 2.5 relative activity over WT GLA (SEQ ID NO: 5)) | + (+ = 0.5 to 1.5 relative activity over WT GLA (SEQ ID NO: 5)) | ++ (++ = >1.5 to 2.5 relative activity over WT GLA (SEQ ID NO: 5)) |
| B2 | ++ (++ = >1.5 to 2.5 relative activity over WT GLA (SEQ ID NO: 5)) | ++ (++ = >1.5 to 2.5 relative activity over WT GLA (SEQ ID NO: 5)) | ++ (++ = >1.5 to 2.5 relative activity over WT GLA (SEQ ID NO: 5)) |
| B3 | + (+ = 0.5 to 1.5 relative activity over WT GLA (SEQ ID NO: 5)) | + (+ = 0.5 to 1.5 relative activity over WT GLA (SEQ ID NO: 5)) | + (+ = 0.5 to 1.5 relative activity over WT GLA (SEQ ID NO: 5)) |
| B4 | + (+ = 0.5 to 1.5 relative activity over WT GLA (SEQ ID NO: 5)) | + (+ = 0.5 to 1.5 relative activity over WT GLA (SEQ ID NO: 5)) | + (+ = 0.5 to 1.5 relative activity over WT GLA (SEQ ID NO: 5)) |
| B5 | + (+ = 0.5 to 1.5 relative activity over WT GLA (SEQ ID NO: 5)) | − (− = <0.5 relative activity to WT GLA (SEQ ID NO: 5)) | − (− = <0.5 relative activity to WT GLA (SEQ ID NO: 5)) |
| B6 | + (+ = 0.5 to 1.5 relative activity over WT GLA (SEQ ID NO: 5)) | ++ (++ = >1.5 to 2.5 relative activity over WT GLA (SEQ ID NO: 5)) | + (+ = 0.5 to 1.5 relative activity over WT GLA (SEQ ID NO: 5)) |
| B7 | ++ (++ = >1.5 to 2.5 relative activity over WT GLA (SEQ ID NO: 5)) | + (+ = 0.5 to 1.5 relative activity over WT GLA (SEQ ID NO: 5)) | ++ (++ = >1.5 to 2.5 relative activity over WT GLA (SEQ ID NO: 5)) |
| B8 | + (+ = 0.5 to 1.5 relative activity over WT GLA (SEQ ID NO: 5)) | + (+ = 0.5 to 1.5 relative activity over WT GLA (SEQ ID NO: 5)) | + (+ = 0.5 to 1.5 relative activity over WT GLA (SEQ ID NO: 5)) |
| B9 | + (+ = 0.5 to 1.5 relative activity over WT GLA (SEQ ID NO: 5)) | + (+ = 0.5 to 1.5 relative activity over WT GLA (SEQ ID NO: 5)) | + (+ = 0.5 to 1.5 relative activity over WT GLA (SEQ ID NO: 5)) |
| B10 | + (+ = 0.5 to 1.5 relative activity over WT GLA (SEQ ID NO: 5)) | − (− = <0.5 relative activity to WT GLA (SEQ ID NO: 5)) | − (− = <0.5 relative activity to WT GLA (SEQ ID NO: 5)) |
| B11 | ++ (++ = >1.5 to 2.5 relative activity over WT GLA (SEQ ID NO: 5)) | + (+ = 0.5 to 1.5 relative activity over WT GLA (SEQ ID NO: 5)) | + (+ = 0.5 to 1.5 relative activity over WT GLA (SEQ ID NO: 5)) |
| B12 | + (+ = 0.5 to 1.5 relative activity over WT GLA (SEQ ID NO: 5)) | + (+ = 0.5 to 1.5 relative activity over WT GLA (SEQ ID NO: 5)) | + (+ = 0.5 to 1.5 relative activity over WT GLA (SEQ ID NO: 5)) |
| B13 | + (+ = 0.5 to 1.5 relative activity over WT GLA (SEQ ID NO: 5)) | ++ (++ = >1.5 to 2.5 relative activity over WT GLA (SEQ ID NO: 5)) | ++ (++ = >1.5 to 2.5 relative activity over WT GLA (SEQ ID NO: 5)) |
